This is an account of results in publication PMC9032424 (PLoS ONE, 2022).

This assay concerns the target T1, HisH (glutaminase subunit of Imidazole Glycerol Phosphate Synthase) from Thermotoga maritima (Thermotoga maritima, UniProt Q9X0C8 1-201).
T1 construct: HisH, Thermotoga maritima; cloned NdeI/XhoI into pET28a; No removal of the His-tag is described; source: bacteria transformed with pET28a, purified (70°C heat step, Ni-NTA agarose)
T1 sequence: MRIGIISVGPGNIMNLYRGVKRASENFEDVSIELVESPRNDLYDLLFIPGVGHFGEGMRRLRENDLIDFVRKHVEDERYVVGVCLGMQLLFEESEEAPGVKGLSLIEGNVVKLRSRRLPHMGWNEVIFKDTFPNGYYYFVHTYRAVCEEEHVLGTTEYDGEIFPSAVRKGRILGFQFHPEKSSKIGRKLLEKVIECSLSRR
In words: other fluorescence titration; intrinsic tryptophan fluorescence; 15 uM HisH mixed with sub-stoichiometric HisF (1 to 5 uM); 20 mM potassium phosphate pH 7.5; excitation 295 nm, difference spectra read at 321 nm; fluorescence as proxy of concentrations; 30°C. The conditions noted are these: both partners purified.

B1: HisF E167A (enzyme, Thermotoga maritima)
chain: MLAKRIIACLDVKDGRVVKGTNFENLRDSGDPVELGKFYSEIGIDELVFLDITASVEKRKTMLELVEKVAEQIDIPFTVGGGIHDFETASELILRGADKVSINTAAVENPSLITQIAQTFGSQAVVVAIDAKRVDGEFMVFTYSGKKNTGILLRDWVVEVEKRGAGAILLTSIDRDGTKSGYDTEMIRFVRPLTTLPIIASGGAGKMEHFLEAFLAGADAALAASVFHFREIDVRELKEYLKKHGVNVRLEGL
notes: HisF, Thermotoga maritima, with the single mutation E167A; parent is the HisF of m1; probably as the His-tagged wild-type HisF; also called mutant HisF
On to B1, for which the “fold increase of Kd against wild-type HisF” value (“fold increase of Kd” below) worked out at 10 fold.

B2: HisF F210A (enzyme, Thermotoga maritima)
chain: MLAKRIIACLDVKDGRVVKGTNFENLRDSGDPVELGKFYSEIGIDELVFLDITASVEKRKTMLELVEKVAEQIDIPFTVGGGIHDFETASELILRGADKVSINTAAVENPSLITQIAQTFGSQAVVVAIDAKRVDGEFMVFTYSGKKNTGILLRDWVVEVEKRGAGEILLTSIDRDGTKSGYDTEMIRFVRPLTTLPIIASGGAGKMEHALEAFLAGADAALAASVFHFREIDVRELKEYLKKHGVNVRLEGL
notes: HisF, Thermotoga maritima, with the single mutation F210A; parent is the HisF of m1; probably as the His-tagged wild-type HisF; also called mutant HisF
In the case of B2, the “fold increase of Kd” value is around 3 fold.

B3: HisF K13A (enzyme, Thermotoga maritima)
chain: MLAKRIIACLDVADGRVVKGTNFENLRDSGDPVELGKFYSEIGIDELVFLDITASVEKRKTMLELVEKVAEQIDIPFTVGGGIHDFETASELILRGADKVSINTAAVENPSLITQIAQTFGSQAVVVAIDAKRVDGEFMVFTYSGKKNTGILLRDWVVEVEKRGAGEILLTSIDRDGTKSGYDTEMIRFVRPLTTLPIIASGGAGKMEHFLEAFLAGADAALAASVFHFREIDVRELKEYLKKHGVNVRLEGL
notes: HisF, Thermotoga maritima, with the single mutation K13A; parent is the HisF of m1; probably as the His-tagged wild-type HisF; also called mutant HisF
Regarding B3, the “fold increase of Kd” value is around 3 fold.

B4: HisF L169A (enzyme, Thermotoga maritima)
chain: MLAKRIIACLDVKDGRVVKGTNFENLRDSGDPVELGKFYSEIGIDELVFLDITASVEKRKTMLELVEKVAEQIDIPFTVGGGIHDFETASELILRGADKVSINTAAVENPSLITQIAQTFGSQAVVVAIDAKRVDGEFMVFTYSGKKNTGILLRDWVVEVEKRGAGEIALTSIDRDGTKSGYDTEMIRFVRPLTTLPIIASGGAGKMEHFLEAFLAGADAALAASVFHFREIDVRELKEYLKKHGVNVRLEGL
notes: HisF, Thermotoga maritima, with the single mutation L169A; parent is the HisF of m1; probably as the His-tagged wild-type HisF; also called mutant HisF
As to B4, the “fold increase of Kd” value was around 3 fold.
